Among the data in PMC5630700 (Frontiers in Immunology, 2017) are EC50 values, retold here.

B1: sdAb C as a BAP fusion (from pecan126) (VHH)
VHH: KVQLQESGGGLVQVGGSLRLSCKASGFTFRSSAMGWYRRAPGKQRELVASLTTTGTADYGDFVKGRFTISRDNAENTVDLHMNSLKPEDTAVYYCHEDPYGMESLRYWGQGTQVTVSS
notes: also called wild-type sdAb C; source: E. coli HBV88 (pecan126), purified
B2: sdAb B as a BAP fusion (from pecan126) (VHH)
VHH: KVQLQESGGGLVQAGGSLRLSCAASGGTFSINTLGWYRRAPGKEREFVARISSGGITRYADSVKGRFTISRDNGKNTVYLDMNSLKPEDTAVYYCMYRNWGGGLDVYWGQGTQVTVSS
notes: also called wild-type sdAb B; source: E. coli HBV88 (pecan126), purified
B3: sdAb A as a BAP fusion (from pecan126) (VHH)
VHH: EVKLQESGGGLVQAGESLRLSCAVPPEVFDIRTVAWYRQVPLGKGRELLSSITPWNKTTYEDSVKDRFTISRDNAKYTVYLQMNDLKPEDTAVYYCAQGWGIASMRYWGQGTQVTVSS
notes: also called wild-type sdAb A; source: E. coli HBV88 (pecan126), purified
B4: sdAb C–Gaussia luciferase fusion (glucibody, pecan35) (VHH)
VHH: KVQLQESGGGLVQVGGSLRLSCKASGFTFRSSAMGWYRRAPGKQRELVASLTTTGTADYGDFVKGRFTISRDNAENTVDLHMNSLKPEDTAVYYCHEDPYGMESLRYWGQGTQVTVSS
notes: also called sdAb C glucibody; sdAb C–gluc; source: E. coli Tuner + pRARE, periplasmic (pecan35), purified
B5: sdAb B–Gaussia luciferase fusion (glucibody, pecan35) (VHH)
VHH: KVQLQESGGGLVQAGGSLRLSCAASGGTFSINTLGWYRRAPGKEREFVARISSGGITRYADSVKGRFTISRDNGKNTVYLDMNSLKPEDTAVYYCMYRNWGGGLDVYWGQGTQVTVSS
notes: also called sdAb B glucibody; sdAb B–gluc; source: E. coli Tuner + pRARE, periplasmic (pecan35), purified
B6: sdAb A–Gaussia luciferase fusion (glucibody, pecan35) (VHH)
VHH: EVKLQESGGGLVQAGESLRLSCAVPPEVFDIRTVAWYRQVPLGKGRELLSSITPWNKTTYEDSVKDRFTISRDNAKYTVYLQMNDLKPEDTAVYYCAQGWGIASMRYWGQGTQVTVSS
notes: also called sdAb A glucibody; sdAb A–gluc; source: E. coli Tuner + pRARE, periplasmic (pecan35), purified

T2 sequence (P27588 632-695): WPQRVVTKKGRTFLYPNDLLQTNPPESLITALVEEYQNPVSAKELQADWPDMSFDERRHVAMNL

For the first test, the target named is T1, nluc-NP632 fusion protein (Marburg virus Musoke-80, UniProt P27588).
T1 construct: source: E. coli, cytosolic (pENCO derivative), purified
The test can be described thus: ELISA. To be noted: both partners purified. (ELISA stands for enzyme-linked immunosorbent assay.)
Regarding B1, the EC50 – broadly, the concentration needed to bring the measured effect to its halfway point – worked out at 26.6 nM.

As for B2, the EC50 was 28.5 nM. The EC50 values of the last two molecules are within 1.5-fold of each other.

In turn, B3 registered an EC50 of 12.8 nM.

A further test concerns the target T2, mbp-NP632 fusion protein (Marburg virus Musoke-80, UniProt P27588).
T2 construct: source: E. coli (pE), purified
Nature of the test: ELISA. The settings on record: both partners purified.
Consider B4, for which it took 22.3 nM to reach a half-maximal effect (EC50).

Consider B5, for which the midpoint of the response, the EC50, lay at 189 nM.

With B6, the EC50 amounted to 15.4 nM.
